Measurements as given in publication PMC2386467.

biological target: Rap2.6 (Arabidopsis thaliana) (UniProt Q7G1L2); test: EMSA; settings: EMSA: 2.5 ug protein, 20 ng DNA, 0.5x TBE, 20 min room temperature, 6-7% native PAGE, anti-His blot; affinity assay: 2 ug protein, 100 pmol F5, 0.5x TBE, 10 min
Sequence (Q7G1L2 whole entry): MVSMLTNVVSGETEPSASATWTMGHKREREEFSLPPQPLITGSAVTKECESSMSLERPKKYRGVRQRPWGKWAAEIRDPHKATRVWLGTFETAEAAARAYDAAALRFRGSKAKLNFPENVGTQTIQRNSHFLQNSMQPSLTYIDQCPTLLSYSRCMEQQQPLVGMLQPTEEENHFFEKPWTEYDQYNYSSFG

binding, no binding:
AAACCATGGCATGCATAAGAGTCTTGAGCATAATAATGAAACCTGGATTTCCCGGAATAAACAATACATGGAATGTGGGATTCTCAGCTTGAATTTCCATCATCTCCGTCATC (double strand) [F2]
TCTCCGTCATCGAACTTTGATCACAAATACAAAAAACAAAACAAAAAGTGTAACTATAGTCAAAGAAATTAGAAAATTTCGTAAAAGATTAATGTAACAATACCCAGAAACTCTGC (double strand) [F3]
CTCCGGTCACGCGATTCAACTTATATCTTCTCTCAGAACTGTCAACACTTGAAAGGAGAAGATCGAGAGAATTAATGAGACAACAGAGAAACCACTAAAAATCAAAACTTTGCAAAATAAGTGAAGAAGCCTTTTAAAGTAAACCAAGTGAAGAGAG (double strand) [F5]
AAACCATGGCATGCATAAGAGTCTTGAGCATAATAATGAAACCTGGATTTCCCGGA (double strand) [F1]
